Assay results reported in US20120165211A1, “Human Antibodies Cross-Reacting With A Bacterial And A Self Antigen From Atherosclerotic Plaques” (priority 2007, published 2012).

Experiments:
carotid plaque = assay: Immunohistology (immunofluorescence) on carotid plaque sections; format: binding, human; settings: 7816Fab-FLAG detected with anti-FLAG clone M2 and anti-Mouse IgG AlexaFluor488
Method: Carotid plaques harvested during TEA surgery, just after excision were fixed in 4% paraformaldehyde in PBS, cut in consecutive 2 mm thick rings, decalcified in EDTA solution when required, cryoprotected in 10% sucrose in PBS, embedded in OCT compound, then snap frozen in isopentane/liquid nitrogen and stored at −80° C. Cryosections ([…]) were cut from every ring and stained with either Hematoxylin/Eosin or Movat's pentachrome, thus the morphology was examined in at least 4 sections/ring using an Eclipse 55i microscope equipped with DS-L1 camera and LUCIA 4.82 software (all from Nikon, Tokyo, J). Multiple images collected from each ring, were composed by LUCIA 4.82 software, to obtain a whole section picture. The presence of thin cap, foam cells, fibrolipids, ulcerations, necrotic/thrombotic core, calcifications, hemorrhage/thrombosis and inflammatory infiltrate were used to classify carotid plaques as stable, vulnerable, or unstable, following Virmani's modified AHA classification. Additional sections (10 μm thick) from rings with and without atheroma were selected and submitted for immunolabeling with anti CD138 antibody or with 7816Fab-FLAG detected with anti-FLAG clone M2 followed by rabbit-anti-Mouse IgG AlexaFluor488. DAPI stained the nuclei. […] The nuclear fluorescence was due to DAPI staining.

[1] = system: antigen in the carotid lysate; assay: Western blotting on carotid lysates; format: binding, human; settings: Fab 10 μg/ml; protein extracts 20 μg/lane
Method: Carotid plaques were macrodissected in 2 mm-thick rings and frozen in isopentane/liquid nitrogen. Every ring was considered as a single specimen. For each patient proteins were extracted from a stenotic and a non-stenotic ring by tissue homogenization in RIPA lysis buffer. The protein content of carotid plaque homogenates was quantified by Bradford assay. Western blot was performed on protein extracts (20 μg/lane) by using 10% Sodium Dodecyl Sulphate-PolyAcrylamide Gel Electrophoresis (SDS-PAGE). SDS-PAGE loading buffer was added to protein lysates before heating at 90° C. for 5 min. Gel was run for about 2 hours at 120V. […] Target (7816-FLAG) and reference proteins (bActin) were detected with specific antibodies (anti-FLAG clone M2 followed by Rabbit-anti Mouse IgG-HRP, and Rabbit-anti Mouse IgG-HRP, respectively—all from Sigma (cod: A9917, St. Louis, Mo.). The membrane was developed by SuperSignal West Pico Chemiluminescent Substrate (Pierce) according to the manufacture instructions. The mean pixel optical density (OD) for each band of the target protein, determined by densitometry, was normalized vs. β-Actin, to evaluate its quantity with respect to carotid plaque total cells. Stenotic and non stenotic rings from stable and unstable (determined by US) carotid plaque specimens were compared.

transgelin 1 (SM22) = target: T1, transgelin 1 (SM22) (Homo sapiens, UniProt Q01995); assay: 2D electrophoresis Western blotting on plaque lysate and MALDI-ToF identification of the recognized antigen; format: binding; settings: two distinct spots of the 2D gel; confirmed by protein sequencing
T1 construct: A piece of the coronary plaque was weighted (65 mg), cut in small fragments and directly smashed with a Dounce; from tissue; host or cells: human coronary atherosclerotic plaque
T1 sequence (Q01995 whole entry, the tested form may be a part): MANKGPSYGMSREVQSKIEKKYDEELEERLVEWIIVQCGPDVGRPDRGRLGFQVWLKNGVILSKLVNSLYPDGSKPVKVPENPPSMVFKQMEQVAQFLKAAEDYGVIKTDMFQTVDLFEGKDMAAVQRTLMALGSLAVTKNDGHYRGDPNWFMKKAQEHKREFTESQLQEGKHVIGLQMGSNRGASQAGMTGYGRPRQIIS
Method: A piece of the coronary plaque was weighted (65 mg), cut in small fragments and directly smashed with a Dounce in 500 μl of the R5 buffer, containing: urea 8M, thiourea 2M, CHAPS 4%, Zwittergent 0.05%, 40 mM trizma base and a cocktail of protease inhibitors. The lysate was then sonicated for 5 minutes and centrifuged at 13,000 rpm for 30 minutes at 15° C. Supernatant protein content was evaluated by Bradford assay, using BSA dissolved in the same buffer, as standard. The proteins (200 μg), dissolved in R5 buffer (final volume 130 μl), were added to DeStreak (100 mM) and 2% IPG buffer pH 3-10NL, prior to loading the sample on strip pH 3-10NL, 7 cm. Total focusing run for the 1st dimension was 50,000 Vh. The 2nd dimension was carried out using 12.5% acrylamide SDS-PAGE. MW Standard proteins were run on the same gel. The gel was stained with colloidal Coomassie Brilliant Blue (cCBB). […]
Protein corresponding to positive spots in WB were excised from the gel, destained, reduced with DTE (10 mM in ammonium bicarbonate 25 mM) at 56° C. for 30 minutes, alkylated with IAA (55 mM in ammonium bicarbonate 25 mM) in the dark at room temperature for 20 minutes. They were digested with trypsin and directly analysed by MALDI-ToF mass spectrometry, using alpha-cyano-4-hydroxycinnamic acid as matrix. […]

[2] = target: T2, recombinant transgelin (rTAGLN) (Homo sapiens, UniProt Q01995); format: binding; settings: 4-500 ng rTAGLN per well
T2 construct: purchased Origene TP302448
T2 sequence (Q01995 whole entry): as the sequence (Q01995 whole entry, the tested form may be a part) above

purified OmpK36 = target: T3, purified OmpK36 (Klebsiella pneumoniae, UniProt Q48473); assay: Western blot of purified OmpK36 with recombinant Fabs; format: binding; settings: 400 ng OmpK36His per lane; Fabs at 10 μg/L; blocking PBS/BSA10%
T3 construct: made in house; host or cells: E. coli BL21 (DE3), pET28b (BamHI/XhoI cloning)
Method: 400 ng of purified OmpK36His was loaded on polyacrylamide gel (all lanes) and SDS-PAGE was performed. Proteins were blotted on PVDF membrane for 2 h at 350 mA. After blocking with PBS/BSA10% the membrane was cut to single lanes and each lane was incubated for 1 h with Fabs at 10 μg/L. After three washes membrane was incubated with anti-Human Light Chain K antibody (Sigma).

B1: Fab7816: human recombinant Fab from coronary plaque library ID11LIB; heavy chain SEQ ID NO:2, light chain SEQ ID NO:4 (antibody, listed as Homo sapiens, V domains shown)
VH: LESGPGQVKPSQTLSLTCTVSGGSIGSGSYSWNWIRQPAGRGLEWIGRISDSGNTNFNPSLKSRVTMSVDTSKNQFALKLTSVTAADTATYFCARGRGILTGLFDYWGQGSLVSVSSASTKGPSVFPLAPSSKSTSGGTAALGCLVKD
VL: SPDSLAVSPGGRATIKCASSQSVLDNSNHKNSLAWYQQKPGLPPKLLIYWASTRYSGVPDRFSGSGSGTDFTLTINNLQAADVAVYFCQQYYSTPWTFGQGTKVE
- immunofluorescence staining of carotid plaque sections (carotid plaque): specific immonostaining, mainly cytoplasmic
- binding in Western blot on carotid lysate [1]: binding with an antigen in the carotid lysate
- self antigen recognized in plaque lysate (2DE-WB spots, mass spectrometry) (transgelin 1 (SM22)): transgelin 1 (SM22) was unequivocally identified as the putative natural (self) antigen
- binding to human transgelin in Western blot [2]: recognize human transgelin
- reactivity with purified OmpK36 in western-blot (purified OmpK36): react with purified OmpK36
